The values below come from patent publication US20140363438A1, “NEUREGULIN ANTIBODIES AND USES THEREOF” (Genentech, Inc., priority 2011, published 2014).

For orientation: Kd means the constant that tells how readily two partners part at equilibrium. As usually defined, the koff is the rate constant with which the complex falls apart. The term kon denotes the second-order rate constant of association.

Assay [1] deals with H441 tumor model. Kind of assay: H441 xenograft after chemotherapy: tumor response and NRG1 expression in residual tumor cells (qPCR). In kind it is in vivo, human. The method, then: (§1) RNA was isolated using the Qiagen RNeasy Micro Kit, Complementary DNA was prepared from total RNA using ABI high fidelity kit according to manufacturer's instructions. NRG1alpha, NRG1beta, HER3, HER4 expression was determined using ABI gene specific primers/probe by quantitative real time PCR (ABI 7500). Gene expression was normalized using GAPDH or RAB14 house keeping genes.
(§2) Tumor cells (10-20 million) were transplanted into right flank of athymic nude mice. When tumor size reached ˜200 mm^3, the mice were divided into different treatment groups. Mice were then treated with either vehicle or chemotherapy (paclitaxel, i.v.+cisplatin, i.p.) for the initial studies. The chemotherapy dosing regimen was paclitaxel 20 mg/kg i.v. every other day for 5 doses and cisplatin 5 mg/kg i.p. on days 1 and 7 for the Calu3 model and days 1 and 14 for the H441 model. Regressed tumors and time matched vehicle controls were collected at least 1 week after the last dose of chemo. Tumors were dissociated using dispase/collagenase and samples were FACS sorted to collect the GFP positive tumor cells. For the NRG1 knockdown studies, the treatment groups were: sucrose, doxycycline (dox), chemotherapy+sucrose, and chemotherapy+doxycycline. […]
(§3) The expression of NRG1 in TRICs isolated from the Calu3 and H441 xenograft models was analyzed. […]
Background: A xenograft is tissue or cells of one species grown in another, often human tumour cells in immunodeficient mice.

Assay [2] concerns Calu3 tumor model. Description: Calu3 xenograft after chemotherapy: tumor response and NRG1 expression in residual tumor cells (qPCR). In kind it is in vivo, human. The method, then:
as §1, §2, §3

Assay [3] concerns the target T1, Recombinant human NRG1-α EGF domain (R&D Systems, cat#296-HR/CF) (human, UniProt Q02297 177-241).
T1 construct: also called NRG1-alpha; HRG1α
T1 sequence: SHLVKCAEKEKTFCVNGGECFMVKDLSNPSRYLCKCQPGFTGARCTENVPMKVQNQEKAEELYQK
Kind of assay: SPR (BIAcore T100), IgG captured by anti-human Fc, NRG1α injected; table under the head '250 nM NRG1-alpha'. The protocol:
(§4) Binding affinities of anti-NRG1 IgGs were measured by Surface Plasmon Resonance (SRP) using a BIAcore™-T100 instrument. Anti-NRG1 human IgGs were captured by mouse anti-human Fc antibody (GE Healthcare, cat# BR-1008-39) coated on CM5 biosensor chips to achieve approximately 1000 response units (RU). […] Association rates (kₒₙ) and dissociation rates (koff) were calculated using a simple one-to-one Langmuir binding model (BIAcore Evaluation Software version 3.2). The equilibrium dissociation constant (KD) was calculated as the ratio koff/kₒₙ.
In general terms: Surface plasmon resonance follows binding to a sensor surface in real time, without labels.

Assay [4] concerns the target T2, Recombinant human NRG1-β ECD domain (R&D Systems, cat#377-HB/CF) (human, UniProt Q02297-11 121-191, limits assumed).
T2 construct: also called NRG1-beta; HRG1β
T2 sequence: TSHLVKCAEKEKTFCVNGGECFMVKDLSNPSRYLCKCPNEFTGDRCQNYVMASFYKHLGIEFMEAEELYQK
Kind of assay: SPR (BIAcore T100), IgG captured by anti-human Fc, NRG1β (HRG-beta) injected; sensorgram shown for 7.8 nM (sheet: '7.8 mnM HRG beta'). The protocol:
as §4

Assay [5] addresses T2, Recombinant human NRG1-β ECD domain …. Kind of assay: SPR (BIAcore T100), IgG captured by anti-human Fc; table under the head '125nM NRG-beta'; this table is identical to that of FIG. 9 (NRG1-alpha) and does not fit the slow dissociation of the sensorgrams above it.
Assay [6] deals with T1, Recombinant human NRG1-α EGF domain …. Kind of assay: SPR (BIAcore T100), IgG captured by anti-human Fc, NRG1α (HRG-alpha) injected; sensorgram shown for 7.8 nM (sheet: '7.8 mnM HRG alpha'). The protocol: as §4
Assay [7] has the same target. Kind of assay: SPR (BIAcore T100), IgG captured by anti-human Fc, NRG1α injected; sensorgram shown for 6.25 nM NRG-alpha. The method, then: as §4
For assay [8] the target is unchanged. Kind of assay: cell-based or functional assay.
Assay [9] concerns the target T3, Recombinant human Neuregulin 1-beta (rhNRG1b, Genentech) (human, UniProt Q02297 1-640).
T3 sequence: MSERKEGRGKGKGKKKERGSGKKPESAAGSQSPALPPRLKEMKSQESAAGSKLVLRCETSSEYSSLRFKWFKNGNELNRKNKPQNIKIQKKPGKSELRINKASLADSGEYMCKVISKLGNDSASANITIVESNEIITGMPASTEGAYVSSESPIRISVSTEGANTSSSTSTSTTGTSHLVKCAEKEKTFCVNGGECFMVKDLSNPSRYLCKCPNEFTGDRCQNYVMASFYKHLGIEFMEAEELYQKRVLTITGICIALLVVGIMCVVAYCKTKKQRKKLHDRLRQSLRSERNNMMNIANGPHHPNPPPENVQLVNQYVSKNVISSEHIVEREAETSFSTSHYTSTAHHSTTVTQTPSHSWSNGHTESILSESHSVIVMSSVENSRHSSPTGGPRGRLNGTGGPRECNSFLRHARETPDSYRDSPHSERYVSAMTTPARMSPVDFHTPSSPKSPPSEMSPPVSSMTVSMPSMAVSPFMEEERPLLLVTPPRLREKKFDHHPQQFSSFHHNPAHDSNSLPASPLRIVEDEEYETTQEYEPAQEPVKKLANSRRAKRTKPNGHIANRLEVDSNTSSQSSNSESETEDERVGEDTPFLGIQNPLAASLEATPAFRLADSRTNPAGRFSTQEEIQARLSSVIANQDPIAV
Kind of assay: cell-based or functional assay.

For assay [10], the target named is EGF (UniProt P01133 971-1023). Description: ELISA. (ELISA stands for enzyme-linked immunosorbent assay.)
The target of assay [11] is T4, Betacellulin (BTC) (UniProt P35070 32-111).
T4 sequence (looked up): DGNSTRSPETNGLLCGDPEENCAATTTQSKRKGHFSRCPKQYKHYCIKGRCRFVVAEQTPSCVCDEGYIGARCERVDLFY
Description: ELISA.

Assay [12] addresses HB-EGF (UniProt Q99075 63-148, limits assumed). Description: ELISA.
The target in assay [13] is T2, Recombinant human NRG1-β ECD domain …. Kind of assay: SPR (BIAcore T100), IgG captured by anti-human Fc, NRG1β injected; sensorgram shown for 6.25 nM NRG-beta. The method, then:
as §4

HB-EGF, sequence (Q99075 63-148 limits assumed): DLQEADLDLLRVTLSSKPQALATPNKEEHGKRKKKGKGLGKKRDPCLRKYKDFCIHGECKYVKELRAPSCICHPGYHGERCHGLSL
EGF, sequence (P01133 971-1023 limits assumed): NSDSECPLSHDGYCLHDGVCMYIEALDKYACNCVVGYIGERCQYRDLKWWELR

In the case of `Nc1ccn([C@@H]2O[C@H](CO)[C@@H](O)C2(F)F)c(=O)n1` [gemcitabine], the “tumor response to treatment” value in assay [1] and in [2] was “tumor regression” throughout.
For `CCC1=C[C@@H]2CN(C1)Cc1c([nH]c3ccccc13)[C@@](C(=O)OC)(c1cc3c(cc1OC)N(C)[C@H]1[C@@](O)(C(=O)OC)[C@H](OC(C)=O)[C@]4(CC)C=CCN5CC[C@]31[C@@H]54)C2` [vinorelbine], the “tumor response to treatment” value in assay [1] and in assay [2] was “continued to grow” throughout.

B1: anti-NRG1 antibody 538.24 (antibody, human IgG1, V domains shown)
VH: EVQLVESGGGLVQPGGSLRLSCAASGFTFSGTWIHWVRQAPGKGLEWVAAITPADGSTNYADSVKGRFTISADTSKNTAYLQMNSLRAEDTAVYYCATYMFAMDYWGQGTLVTVSS
VL: DIQMTQSPSSLSASVGDRVTITCRASQDVSTAVAWYQQKPGKAPKLLIYSASFLYSGVPSRFSGSGSGTDFTLTISSLQPEDFATYYCQQSYTTPPTFGQGTKVEIKR
notes: also called YW538.24
B1: the Kd in [3] was greater than 400 nM.

B2: anti-NRG1 antibody 538.24.94 (antibody, human IgG1, V domains shown)
VH: EVQLVESGGGLVQPGGSLRLSCAASGFTFSGTWIHWVRQAPGKGLEWVAAITPADGSTNYADSVKGRFTISADTSKNTAYLQMNSLRAEDTAVYYCATYMFAMDYWGQGTLVTVSS
VL: DIQMTQSPSSLSASVGDRVTITCRASQDVKKSLAWYQQKPGKAPKLLIYGASNLESGVPSRFSGSGSGTDFTLTISSLQPEDFATYYCQQHYTLPLTFGQGTKVEIKR
notes: also called YW538.24.94
With B2, in [4], the Kd was 0.109 nM, the koff was 7.34e-05 s⁻¹ and the kon came out at 674000 M⁻¹ s⁻¹. In [5], the Kd worked out at 1.96 nM and the on-rate constant (kon) came out at 480000 M⁻¹ s⁻¹. Besides, in assay [6], the Kd is 1.74 nM, the koff worked out at 0.00674 s⁻¹ and the kon was determined as 3.87e+06 M⁻¹ s⁻¹.

B3: anti-NRG1 antibody 538.24.17 (antibody, human IgG1, V domains shown)
VH: EVQLVESGGGLVQPGGSLRLSCAASGFTFSGTWIHWVRQAPGKGLEWVAAITPADGSTNYADSVKGRFTISADTSKNTAYLQMNSLRAEDTAVYYCATYMFAMDYWGQGTLVTVSS
VL: DIQMTQSPSSLSASVGDRVTITCRASQDVSTAVAWYQQKPGKAPKLLIYSASFLYSGVPSRFSGSGSGTDFTLTISSLQPEDFATYYCQQSYWMPPTFGQGTKVEIKR
notes: also called YW538.24.17
As to B3, in [5], the Kd was 5.18 nM, the koff came to 0.0081 s⁻¹ and the kon is 1.56e+06 M⁻¹ s⁻¹. For the same molecule, in assay [3], the Kd stood at 5.18 nM, the koff is 0.0081 s⁻¹ and the kon is 1.56e+06 M⁻¹ s⁻¹.

B4: anti-NRG1 antibody 538.24.36 (antibody, human IgG1, V domains shown)
VH: EVQLVESGGGLVQPGGSLRLSCAASGFTFSGTWIHWVRQAPGKGLEWVAAITPADGSTNYADSVKGRFTISADTSKNTAYLQMNSLRAEDTAVYYCATYMFAMDYWGQGTLVTVSS
VL: DIQMTQSPSSLSASVGDRVTITCRASQNVDRSLAWYQQKPGKAPKLLIYAASSLESGVPSRFSGSGSGTDFTLTISSLQPEDFATYYCQQHYTLPFTFGQGTKVEIKR
notes: also called YW538.24.36
As for B4, in assay [5], the Kd came out at 13.2 nM, the koff turned out to be 0.0252 s⁻¹ and the kon stood at 1.91e+06 M⁻¹ s⁻¹. In assay [3], the Kd is 13.2 nM, the off-rate constant (koff) was 0.0252 s⁻¹ and the kon was 1.91e+06 M⁻¹ s⁻¹.

B5: anti-NRG1 antibody 526.90.28 (antibody, human IgG1, kappa, V domains shown)
VH: EVQLVESGGGLVQPGGSLRLSCAASGFTFSDIAMSWVRQAPGKGLEWVSWIYPSGGNTYYADSVKGRFTISADTSKNTAYLQMNSLRAEDTAVYYCARSYILSQKSATWAFDYWGQGTLVTVSS
VL: DIQMTQSPSSLSASVGDRVTITCRASQSISSYLAWYQQKPGKAPKLLIYGASSRASGVPSRFSGSGSGTDFTLTISSLQPEDFATYYCQQSYSTPITFGQGTKVEIKR
notes: also called YW526.90.28
As for B5, the Kd in [7] amounted to 0.587 nM; in assay [13] it was 1.09 nM. The koff amounted to 0.000595 s⁻¹ in assay [7] and 0.000367 s⁻¹ in assay [13]. In addition, the kon in [7] stood at 1.01e+06 M⁻¹ s⁻¹; in assay [13], 337000 M⁻¹ s⁻¹. Further, the “IC50 of inhibition of Her3 activation (phosphorylation), KIRA on MCF-7 cells, 0.5 nM rhNRG1a” value in assay [8] stood at 13.9 nM. The “IC50 of inhibition of Her3 activation (phosphorylation), KIRA on MCF-7 cells, 0.2 nM rhNRG1b” value in [9] is 1.44 nM. For the same molecule, the binding result in assay [10], in assay [11] and in assay [12] was “no binding” each time.
